Patent US9868768B2, “Hydrophobic modified pres-derived peptides of hepatitis B virus (HBV) and their use as vehicles for the specific delivery of compounds to the liver” (RUPRECHT-KARLS-UNIVERSITAT HEIDELBERG, priority 2008, dated 2018)
Entries after “also recorded” stand apart in the source; their conditions may differ.

Tests used:
HepaRG cells = test: Immunofluorescence binding to HepaRG cells; type: cell-based; settings: 400 nM peptide, 4 hours at 37° C.
Protocol: (§1) Cells were incubated with or without 400 nM peptide for 4 hours at 37° C.:
HepaRG cells were grown in William's E medium supplemented with 10% fetal calf serum (FCS), 100 units/ml penicillin, 100 μg/ml streptomycin, 5 μg/ml insulin and 5×10^−5 M hydrocortisone hemisuccinate (10). Cells were passaged 1/5 every two weeks by trypsination. Two to three weeks before infection cell differentiation was induced by adding 2% DMSO into the maintenance medium. The medium was exchanged every 2-3 days.
(§2) Primary hepatocytes grown on cover slips were incubated with the respective peptide at 200 nM in serum-free cell culture medium. After 1 hour incubation at 37° C. cells were fixed and nuclei were stained with DAPI. Fluorescence microscopy was performed on a Spinning Disk Confocal Microscope at 600× magnification.

[1] = system: primary human hepatocytes (PHH); test: Immunofluorescence binding to primary human hepatocytes; type: cell-based; settings: 400 nM peptide for 4 hours, confocal immunofluorescence
Protocol: Primary human hepatocytes (PHH) were incubated with or without 400 nM peptide for 4 hours:
as §2

[2] = system: Primary mouse hepatocytes (PMH); test: FACS analysis of binding to primary mouse hepatocytes; type: cell-based; settings: 200 nM, 30 minutes at room temperature
Protocol: Cryo-preserved primary hepatocytes were thawed and washed with serum-free medium. In each reaction 4×10^5 cells/ml were incubated with the respective peptide at a concentration of 200 nM in serum-free cell culture medium. The staining was performed for 30 minutes at room temperature with frequent mixing. Subsequently, cells were washed extensively and resuspended in PBS to proceed with the FACS analysis.

[3] = system: Primary mouse hepatocytes (PMH); test: Immunofluorescence binding to primary mouse hepatocytes; type: cell-based; settings: 400 nM peptide, 4 hours at 37° C.; for Binding to primary mouse hepatocytes (PMH): differentiated PMH
Protocol: as §1
[…] After 1 hour incubation at 37° C. cells were fixed and nuclei were stained with DAPI. Fluorescence microscopy was performed on a Spinning Disk Confocal Microscope at 600× magnification.

[4] = Stability assessment of peptide after extraction from the liver (reversed phase HPLC); type: in vivo, uPA+/−/RAG-2−/−Pfp−/− mice; settings: liver extracts 24 h post subcutaneous injection, 131I-labelled
Protocol: Per animal approximately 2.25 μg of the ^131I-labelled peptides were subcutaneously injected. At the indicated time points animals were sacrificed and the liver specific peptide accumulation (% ID/g) was determined. (B) Reversed phase HPLC of pure ^131I-labelled HBVpreS/2-48^myr(D) (brown curve) in comparison to liver extracts (orange curve) obtained 24 h post subcutaneous injection into uPA+/−/RAG-2−/−Pfp−/− mice of the same peptide. Note that 50% of detectable activity is eluting at fraction 13. Since the hydrophobic myristoyl residue is located at the N-terminus and the iodinated Tyr-residue at the C-terminus fraction 13 represents the unaltered full-length peptide.
To determine the peptide stability in the liver 131I labelled HBVpreS/2-48^myr (D) was extracted from one liver lobe 24 h post subcutaneous injection. To that aim, 1 ml water per gram frozen liver tissue was added to the sample. After homogenization an equal volume of acetonitrile was added and the homogenization was repeated. After centrifugation (2×10 min at 4000×g) this solution was separated on a reverse phase HPLC column and the radioactivity of each fraction was quantified in a gamma counter.

[5] = Biodistribution after subcutaneous application in uPA+/−/RAG-2−/−Pfp−/− mice; type: in vivo; settings: 2.25 μg 131I-labeled peptide s.c., 10 min to 24 h
[6] = Biodistribution of 131I-labelled peptides after subcutaneous injection in NMRI mice; type: in vivo, male NMRI mice; settings: 2.25 μg 131I-labeled peptide s.c., 10 min, 1 h, 4 h and 24 h post injection
Protocol: Per time point 2.25 μg of ^131I-labeled HBVpreS/2-48^myr(D) were subcutaneously injected into NMRI mice (N=3). 10 min, 1 h, 4 h and 24 h post injection animals were sacrificed and the organ-specific (blood, lung, heart, spleen, liver, kidney and muscle) peptide accumulations (% ID/g) were determined.
The biodistribution of the hydrophobic modified preS-derived peptides was studied in male NMRI mice. All experiments were performed in compliance with German laws. The peptides, containing an additional Tyr-residue at the C-terminal end were labelled with ^131I (Amersham Biosciences, Freiburg, Germany) by the chloramine-T method and purified by HPLC. The labelled peptides were subcutaneously administered by injection of a solution in 50% DMSO. At selected times mice were sacrificed and the radioactivity contained in the blood, heart, lung, spleen, liver, kidney, muscle and brain was measured in a γ-counter (Canberra Packard, Rüsselsheim, Germany) and expressed as a percentage of injected dose per gram of tissue (% ID/g).

Substance | Binding to differentiated HepaRG cells (HepaRG cells) | Binding to undifferentiated HepaRG cells (HepaRG cells; undifferentiated cells) | Binding to primary human hepatocytes (PHH) [1] | Binding to primary mouse hepatocytes (PMH), FACS analysis [2] | Binding to de-differentiated primary mouse hepatocytes (PMH) ([3]; de-differentiated PMH) | Binding to primary mouse hepatocytes (PMH) [3] | detectable activity eluting at fraction 13 (unaltered full-length peptide) in liver extract [4] [%] | organ-specific peptide accumulation (biodistribution) [5] | organ-specific peptide accumulation (biodistribution) [6]
wt myr-FITC: HBVpreS/2-48 myr (C) with lysine at the C-terminus [SEQ ID NO. 39], labelled with FITC | Only wt myr-FITC binds to the cells; also recorded: binds only to differentiated cells | binds only to differentiated cells | only in B binding of the peptide to the cells can be seen | Only wt myr-FITC binds to the cells | binds only to differentiated cells | Only wt myr-FITC binds to the cells; also recorded: binds only to differentiated cells | – | – | –
HBVpreS/2-48^myr(D): SEQ ID NO. 23, genotype D residues 2-48, N-terminus myristoylated | – | – | – | – | – | – | 50 | most of the peptide accumulates in the liver | most of the peptide accumulates in the liver
mut myr-FITC: HBVpreS/2-48 myr (C)-FITC with D-Leu and D-Phe at positions L11 and F13 [reference compound] | Only wt myr-FITC binds to the cells | – | only in B binding of the peptide to the cells can be seen | Only wt myr-FITC binds to the cells | – | Only wt myr-FITC binds to the cells | – | – | –
wt myr(−)-FITC: HBVpreS/2-48(C)-FITC without myristoylation [reference compound] | Only wt myr-FITC binds to the cells | – | only in B binding of the peptide to the cells can be seen | – | – | Only wt myr-FITC binds to the cells | – | – | –
